Experimental data taken from patent publication US20240245796A1 (PROFOUNDBIO US, published 2024).

Experiments:
[1] = target: T1, human FOLR1 extracellular domain linked to His tag (human, UniProt P15328 25-233, limits assumed); assay: BLI, global 1:1 fit (7.82 nM row)
T1 construct: extracellular domain; It may be the same product as m13; also called Hu-FRα; Hu-Ag; not shown: His tag

[2] = target: T2, human FOLR2 extracellular domain linked to His tag (human, UniProt P14207 17-230, limits assumed); assay: BLI, global 1:1 fit (7.82 nM row)
T2 construct: extracellular domain; Antigen in solution in BLI; also called Hu-FRb; not shown: His tag
T2 sequence (P14207 17-230 limits assumed): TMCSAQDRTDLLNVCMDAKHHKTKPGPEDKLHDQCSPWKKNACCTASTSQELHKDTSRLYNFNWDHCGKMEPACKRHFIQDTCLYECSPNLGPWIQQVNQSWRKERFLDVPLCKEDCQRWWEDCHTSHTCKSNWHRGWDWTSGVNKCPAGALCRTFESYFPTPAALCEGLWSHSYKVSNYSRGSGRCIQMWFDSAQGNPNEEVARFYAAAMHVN

[3] = target: T3, mouse FOLR1 extracellular domain linked to His tag (mouse, UniProt P35846 25-232, limits assumed); assay: BLI, global 1:1 fit (250 nM row); only the 500 nM response quantifiable
T3 construct: extracellular domain; Antigen in solution in BLI; also called Mouse-Ag; not shown: His tag
T3 sequence (P35846 25-232 limits assumed): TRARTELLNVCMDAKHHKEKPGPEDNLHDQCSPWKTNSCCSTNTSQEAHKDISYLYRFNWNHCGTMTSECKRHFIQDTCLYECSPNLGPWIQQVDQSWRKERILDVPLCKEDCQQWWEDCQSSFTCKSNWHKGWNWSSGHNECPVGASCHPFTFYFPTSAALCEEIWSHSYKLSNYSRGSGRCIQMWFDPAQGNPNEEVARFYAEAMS

[4] = target: T4, rat FOLR1 extracellular domain linked to His tag (rat); assay: BLI, global 1:1 fit (7.82 nM row); all responses below quantification
T4 construct: extracellular domain; Antigen in solution in BLI; also called Rat-Ag

[5] = target: T1, human FOLR1 extracellular domain linked …; assay: BLI, global 1:1 fit (31.3 nM row)
[6] = target: T2, human FOLR2 extracellular domain linked …; assay: BLI, global 1:1 fit (31.3 nM row)
[7] = target: T4, rat FOLR1 extracellular domain linked …; assay: BLI, global 1:1 fit (125 nM row); all responses below quantification
[8] = target: T4, rat FOLR1 extracellular domain linked …; assay: BLI, Ag 31.3 nM; * = below range of quantification
[9] = target: T1, human FOLR1 extracellular domain linked …; assay: BLI, Ag 7.82 nM over Ab on anti-hIgG Fc tip
[10] = target: T5, cynomolgus monkey FOLR1 extracellular domain linked to His tag (cynomolgus monkey, UniProt A0A2K5U044 25-233); assay: BLI, Ag 7.82 nM over Ab on anti-hIgG Fc tip
T5 construct: extracellular domain; Antigen in solution in BLI; It may be the same product as m14; also called Cyno-Ag; not shown: His tag
T5 sequence (A0A2K5U044 entry or part of it): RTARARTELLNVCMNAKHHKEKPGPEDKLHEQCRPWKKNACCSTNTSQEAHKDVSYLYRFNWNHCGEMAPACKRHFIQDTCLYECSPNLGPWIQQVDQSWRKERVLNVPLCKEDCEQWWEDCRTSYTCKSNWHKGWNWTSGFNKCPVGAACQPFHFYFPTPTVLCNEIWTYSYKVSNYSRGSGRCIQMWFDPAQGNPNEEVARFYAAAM

[11] = target: T1, human FOLR1 extracellular domain linked …; assay: BLI, Ag 15.6 nM over Ab on anti-hIgG Fc tip
[12] = target: T5, cynomolgus monkey FOLR1 extracellular …; assay: BLI, Ag 15.6 nM over Ab on anti-hIgG Fc tip
[13] = target: T1, human FOLR1 extracellular domain linked …; assay: BLI, global 1:1 fit (500 nM row)
[14] = target: T5, cynomolgus monkey FOLR1 extracellular …; assay: BLI, global 1:1 fit (500 nM row)
[15] = target: T3, mouse FOLR1 extracellular domain linked …; assay: BLI, global 1:1 fit (7.82 nM row); only the 500 nM response quantifiable
[16] = target: T4, rat FOLR1 extracellular domain linked …; assay: BLI, Ag 62.5 nM; * = below range of quantification
[17] = target: T1, human FOLR1 extracellular domain linked …; assay: BLI, Ag 125 nM over Ab on anti-hIgG Fc tip
[18] = target: T5, cynomolgus monkey FOLR1 extracellular …; assay: BLI, Ag 125 nM over Ab on anti-hIgG Fc tip
[19] = target: T6, human FOLR3 extracellular domain linked to His tag (human, UniProt P41439 23-245, limits assumed); assay: BLI, global 1:1 fit (62.5 nM row); all responses below quantification
T6 construct: extracellular domain; Antigen in solution in BLI; also called Hu-FRg; not shown: His tag
T6 sequence (P41439 23-245 limits assumed): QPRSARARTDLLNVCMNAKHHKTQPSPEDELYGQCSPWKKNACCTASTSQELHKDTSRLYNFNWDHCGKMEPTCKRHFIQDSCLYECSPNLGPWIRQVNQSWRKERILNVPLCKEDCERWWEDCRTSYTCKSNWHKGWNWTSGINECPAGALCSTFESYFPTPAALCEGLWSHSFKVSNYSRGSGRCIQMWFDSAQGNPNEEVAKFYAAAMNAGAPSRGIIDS

[20] = target: T4, rat FOLR1 extracellular domain linked …; assay: BLI, Ag 15.6 nM; * = below range of quantification
[21] = target: T4, rat FOLR1 extracellular domain linked …; assay: BLI, global 1:1 fit (15.6 nM row); all responses below quantification
[22] = target: T1, human FOLR1 extracellular domain linked …; assay: BLI, global 1:1 fit (15.6 nM row)
[23] = target: T2, human FOLR2 extracellular domain linked …; assay: BLI, global 1:1 fit (15.6 nM row)

T1 sequence (P15328 25-233 limits assumed): as the sequence (A0A2K5U044 entry or part of it) above, with T2I, R4W, K37R, P146A, Y171H counted along it

B1: F131 (antibody, V domains shown)
VH: EVQLLESGGGVVQPGRSLRLSCAASGFTFSSYGMHWVRQAPGKGLEWVAVISYDGSNKYYADSVKGRFTISRANSKNTLYLQMNSLRAEDTAVYYCARPRAYYGAYGSSFDYWGQGTQVTVSS
VL: EIVMTQSPSSVSASVGDRVAITCRASQGISSWLAWYQQKPGKAPKLLIYAASSLQSGVPSRFSGSGSGTDFTLTISSLQPEDFATYYCQQSYSTPLTFGGGTKVDIK
notes: also called clone F131; F131 mAb
- Kd [1]: 5.3 nM
- koff [1]: 0.0012 s⁻¹
- kon [1]: 226000 M⁻¹ s⁻¹
- Kd [2]: 142 nM
- koff [2]: 0.0784 s⁻¹
- kon [2]: 552000 M⁻¹ s⁻¹
- Kd [3]: 2960 nM
- koff [3]: 0.301 s⁻¹
- kon [3]: 102000 M⁻¹ s⁻¹
- koff [4]: 1.03 s⁻¹
- kon [4]: 5490 M⁻¹ s⁻¹
- Kd [5]: 5.3 nM
- koff [5]: 0.0012 s⁻¹
- kon [5]: 226000 M⁻¹ s⁻¹
- Kd [6]: 142 nM
- koff [6]: 0.0784 s⁻¹
- kon [6]: 552000 M⁻¹ s⁻¹
- koff [7]: 1.03 s⁻¹
- kon [7]: 5490 M⁻¹ s⁻¹
- Response [8]: -0.00532
- Response [9]: 0.04
- Response [10]: 0.0537
- Response [11]: 0.0503
- Response [12]: 0.0485
- koff [13]: 0.000338 s⁻¹
- kon [13]: 221000 M⁻¹ s⁻¹
- Kd [14]: 8.15 nM
- koff [14]: 0.00157 s⁻¹
- kon [14]: 193000 M⁻¹ s⁻¹
- Kd [15]: 2960 nM
- koff [15]: 0.301 s⁻¹
- kon [15]: 102000 M⁻¹ s⁻¹
- Response [16]: -0.00606
- Response [17]: 0.146
- Response [18]: 0.177
- koff [19]: 0.217 s⁻¹
- kon [19]: 1660 M⁻¹ s⁻¹
- Response [20]: -0.00395
- koff [21]: 1.03 s⁻¹
- kon [21]: 5490 M⁻¹ s⁻¹
- Kd [22]: 5.3 nM
- koff [22]: 0.0012 s⁻¹
- kon [22]: 226000 M⁻¹ s⁻¹
- Kd [23]: 142 nM
- koff [23]: 0.0784 s⁻¹
- kon [23]: 552000 M⁻¹ s⁻¹

B2: F131-LD038 (antibody, V domains shown)
VH: EVQLLESGGGVVQPGRSLRLSCAASGFTFSSYGMHWVRQAPGKGLEWVAVISYDGSNKYYADSVKGRFTISRANSKNTLYLQMNSLRAEDTAVYYCARPRAYYGAYGSSFDYWGQGTQVTVSS
VL: EIVMTQSPSSVSASVGDRVAITCRASQGISSWLAWYQQKPGKAPKLLIYAASSLQSGVPSRFSGSGSGTDFTLTISSLQPEDFATYYCQQSYSTPLTFGGGTKVDIK
modifications: drug-linker LD038 (PB038, maleimide-PEG unit-Val-Cit-PAB-exatecan) on cysteines freed by TCEP reduction; positions not given
notes: Antibody-drug conjugate of F131 (IgG1) with LD038; also called anti-huFOLR-1 conjugate F131-LD038; F131-038
- Kd [1]: 4.79 nM
- koff [1]: 0.00121 s⁻¹
- kon [1]: 252000 M⁻¹ s⁻¹
- Kd [2]: 84.4 nM
- koff [2]: 0.0813 s⁻¹
- kon [2]: 963000 M⁻¹ s⁻¹
- Kd [3]: 2870 nM
- koff [3]: 0.266 s⁻¹
- kon [3]: 92600 M⁻¹ s⁻¹
- koff [4]: 0.224 s⁻¹
- kon [4]: 2.64e+06 M⁻¹ s⁻¹
- Kd [5]: 4.79 nM
- koff [5]: 0.00121 s⁻¹
- kon [5]: 252000 M⁻¹ s⁻¹
- Kd [6]: 84.4 nM
- koff [6]: 0.0813 s⁻¹
- kon [6]: 963000 M⁻¹ s⁻¹
- koff [7]: 0.224 s⁻¹
- kon [7]: 2.64e+06 M⁻¹ s⁻¹
- Response [8]: -0.00454
- Response [9]: 0.0342
- Response [10]: 0.0225
- Response [11]: 0.0447
- Response [12]: 0.0384
- Kd [13]: 4.8 nM
- koff [13]: 0.00107 s⁻¹
- kon [13]: 224000 M⁻¹ s⁻¹
- Kd [14]: 8.82 nM
- koff [14]: 0.0016 s⁻¹
- kon [14]: 181000 M⁻¹ s⁻¹
- Kd [15]: 2870 nM
- koff [15]: 0.266 s⁻¹
- kon [15]: 92600 M⁻¹ s⁻¹
- Response [16]: -0.00393
- Response [17]: 0.158
- Response [18]: 0.152
- koff [19]: 0.233 s⁻¹
- Response [20]: -0.00212
- koff [21]: 0.224 s⁻¹
- kon [21]: 2.64e+06 M⁻¹ s⁻¹
- Kd [22]: 4.79 nM
- koff [22]: 0.00121 s⁻¹
- kon [22]: 252000 M⁻¹ s⁻¹
- Kd [23]: 84.4 nM
- koff [23]: 0.0813 s⁻¹
- kon [23]: 963000 M⁻¹ s⁻¹
